Patent US20190233526A1

Biological target: human C-C motif chemokine receptor 4 (CCR4) on tumor cell lines (human) (UniProt P51679)
Experiment: cell-based or functional assay

UniProt P51679, sequence (P51679 whole entry): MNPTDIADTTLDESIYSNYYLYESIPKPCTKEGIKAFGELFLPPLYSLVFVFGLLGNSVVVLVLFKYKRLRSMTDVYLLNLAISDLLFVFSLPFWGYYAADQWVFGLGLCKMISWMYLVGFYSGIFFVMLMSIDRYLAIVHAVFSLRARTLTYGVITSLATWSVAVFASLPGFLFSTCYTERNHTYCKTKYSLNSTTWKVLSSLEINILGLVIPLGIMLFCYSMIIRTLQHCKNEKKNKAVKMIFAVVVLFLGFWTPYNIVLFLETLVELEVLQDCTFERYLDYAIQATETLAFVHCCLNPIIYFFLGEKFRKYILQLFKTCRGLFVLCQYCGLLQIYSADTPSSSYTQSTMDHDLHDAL

“CCR4 CAR (chimeric antigen receptor with mAb2-3 scFv, CD8 hinge and transmembrane domain, 4-1BB signaling domain and CD3 zeta signaling domain), expressed on transduced human CD3+ T cells” was tested, and the GM-CSF fold-induction, CAR T cells co-cultured with irradiated ATL55T cells for 24 hours was 5 fold, the IFN-gamma fold-induction, CAR T cells co-cultured with irradiated ATL55T cells for 24 hours was 2 fold and the IL-4 fold-induction, CAR T cells co-cultured with irradiated ATL55T cells for 24 hours was 9 fold. For the same substance, the IL-5 fold-induction, CAR T cells co-cultured with irradiated ATL55T cells for 24 hours was 4 fold, the IL-8 fold-induction, CAR T cells co-cultured with irradiated ATL55T cells for 24 hours was 4 fold and the IL-13 fold-induction, CAR T cells co-cultured with irradiated ATL55T cells for 24 hours was 3 fold. For the same substance, the MDC fold-induction, CAR T cells co-cultured with irradiated ATL55T cells for 24 hours was 2 fold, the TNF-alpha fold-induction, CAR T cells co-cultured with irradiated ATL55T cells for 24 hours was 8 fold and the TNF-beta fold-induction, CAR T cells co-cultured with irradiated ATL55T cells for 24 hours was 5 fold. For the same substance, the [3H]thymidine incorporation of CAR T cells co-cultured with irradiated CCR4-bearing target cells was greater than 3 fold, the increase of MIP-1α level on co-culture with target cells was 36% and the increase of MP-10 (so in the source) level on co-culture with target cells was 25%.
